# Measurements reported in US20060246071A1 (AstraZeneca / MedImmune, published 2006).
# T1: mouse Angiopoietin-2 (mouse, UniProt O35608 19-496)
# T1 construct: Secreted into the supernatant of HEK293F/293T cells transfected with the full-length open reading frame of 496 amino acids (GenBank BC027216); also called mAng-2; mouse Ang-2
# T1 sequence: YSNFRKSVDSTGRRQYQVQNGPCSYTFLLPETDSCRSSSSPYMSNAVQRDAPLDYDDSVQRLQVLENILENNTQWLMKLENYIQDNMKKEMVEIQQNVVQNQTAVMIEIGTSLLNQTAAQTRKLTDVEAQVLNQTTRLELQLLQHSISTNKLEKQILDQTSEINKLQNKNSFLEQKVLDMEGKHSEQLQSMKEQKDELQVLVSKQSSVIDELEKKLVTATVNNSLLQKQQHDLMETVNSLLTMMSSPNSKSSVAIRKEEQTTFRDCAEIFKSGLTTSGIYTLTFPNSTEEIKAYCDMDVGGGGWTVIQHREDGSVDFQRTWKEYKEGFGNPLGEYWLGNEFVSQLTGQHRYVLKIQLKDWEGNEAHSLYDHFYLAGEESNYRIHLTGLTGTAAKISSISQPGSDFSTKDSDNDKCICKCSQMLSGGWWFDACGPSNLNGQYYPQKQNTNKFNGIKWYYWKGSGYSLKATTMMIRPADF
# T2: recombinant human Angiopoietin-2 (human, UniProt O15123 19-496)
# T2 construct: also called Ang-2; rhAng-2
# T2 sequence: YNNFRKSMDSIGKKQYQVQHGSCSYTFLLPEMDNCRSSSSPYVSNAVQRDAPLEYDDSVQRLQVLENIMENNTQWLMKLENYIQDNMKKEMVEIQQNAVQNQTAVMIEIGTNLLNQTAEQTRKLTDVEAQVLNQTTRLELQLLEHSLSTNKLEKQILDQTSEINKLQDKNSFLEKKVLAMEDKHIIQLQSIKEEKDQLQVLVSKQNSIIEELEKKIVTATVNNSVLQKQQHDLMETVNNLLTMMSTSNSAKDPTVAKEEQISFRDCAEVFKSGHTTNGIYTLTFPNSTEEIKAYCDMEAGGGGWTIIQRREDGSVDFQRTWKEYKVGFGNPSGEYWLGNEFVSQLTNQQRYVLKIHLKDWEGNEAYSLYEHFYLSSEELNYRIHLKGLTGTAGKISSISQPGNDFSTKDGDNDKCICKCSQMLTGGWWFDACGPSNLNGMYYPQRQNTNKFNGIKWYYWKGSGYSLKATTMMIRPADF
# B1: mAb 3.19.3 (antibody, V domains shown)
# VH: QVQLVESGGGVVQPGRSLRLSCAASGFTFTNYGMHWGRQAPGKGLEWVAVISHDGNNKYYVDSVKGRFTISRDNSKNTLYLQMNSLRAEDTAVYYCAREGIDFWSGLNWFDPWGQGTLVTVSS
# VL: EIVLTQSPGTLSLSPGERATLSCRASQSITGSYLAWYQQKPGQAPRLLICGASSWATGIPDRFSGSGSGTDFTLTISRLEPEDFAVYYCQQYSSSPITFGQGTRLEIKR
# notes: Variable regions only; hybridoma-derived fully human IgG kappa; also called x3.19
# B2: mAb 3.3.2 (antibody, V domains shown)
# VH: EVQLVESGGGLVQPGGSLRLSCAVSGFTFSSYWMSWVRQAPGKGLEWVANIKQDGSEKYYVDSVKGRFTISRDNAKNSLYLQMNSLRAEDTAVYYCARDQGIAVAGPFDYWGQGTLVTVSS
# VL: EIVMTQSPATLSVSPGERATLSCRASQTVSSDLAWYQQKPGQAPRLLIYGASIRATGIPARFSGSGSGTEFTLTISSLQSEDFAVYSCQQYYNWWTFGQGTKVEIKR
# notes: Variable regions only; hybridoma-derived fully human IgG kappa; also called 3.3.1; x3.3
# B3: mAb 5.103.1 (antibody, V domains shown)
# VH: QVQLVQSGAEVKKPGASVKVSCKASGYTFTGYYLYWVPQAPGQGLEWMGWISPNSGGTNYAQKFQGRVTMTRDTSISTAYMELSRLRSDDTAVYYCARDQVIAVAGPFDYWAQGTLVTVSS
# VL: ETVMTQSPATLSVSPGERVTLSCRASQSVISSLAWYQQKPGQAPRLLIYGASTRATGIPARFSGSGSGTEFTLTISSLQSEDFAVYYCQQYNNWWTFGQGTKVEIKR
# notes: Variable regions only; hybridoma-derived fully human IgG kappa; also called x5.103*
# B4: mAb 5.101.1 (antibody, V domains shown)
# VH: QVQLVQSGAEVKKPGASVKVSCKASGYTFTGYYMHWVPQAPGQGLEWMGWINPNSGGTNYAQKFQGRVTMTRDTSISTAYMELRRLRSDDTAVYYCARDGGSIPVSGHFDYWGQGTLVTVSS
# VL: EIVMTQSPATLSVSPGERATLSCRASQSLISNLAWYQQKPGQAPRLLIFGASTRATGIPARFSGSGSGTEFTLTISSLQSEDFAVYYCHQYNNWWTFGQGTKVEIKR
# notes: Variable regions only; hybridoma-derived fully human IgG kappa; also called x5.101
# B5: mAb 5.28.1 (antibody, V domains shown)
# VH: EVQLVESGGIVVQPGGSLRLSCAASGFTFDDYTMHWVRQTPGKGLEWVSLISWDGGSTYYADSVKGRFTISRDNSKNSLYLQMNSLRTEDTALYYCAKDIDIAVAGTGFDHWGQGTLVTVSS
# VL: EIVMTQSPATLSVSPGERATLSCRASQSVTSNLAWYQQKPGQAPRLLIYGALIRATGIPARFSGSGSGTEFTLTISSLQSEDFAVYYCQQYNNWPFTFGPGTKVDIKR
# notes: Variable regions only; hybridoma-derived fully human IgG kappa; also called x5.28
# B6: mAb 3.31.2 (antibody, V domains shown)
# VH: EVQLVESGGGLVQPGGSLRLSCAASGFTFSSYWMSWVRQAPGKGLEWVANIKQDGSDKYYVDSVKGRFTISRDNAKNSLYLRMNSLRAEDTAVFYCARDMGSGWFDYWGQGTLVTVSS
# VL: EVVMTQSPATLSVSPGERATLSCRASQSVGSNLAWYQQKPGQAPRLLIYGASTRATGIPARFSGSGSGTEFTLTISSLQSEDFAVYCCQQYNHWWTFGQGTKVEIKR
# notes: Variable regions only; hybridoma-derived fully human IgG kappa; also called x3.31*
# B7: mAb 5.86.1 (antibody, V domains shown)
# VH: QVQLVQSGAEVKKPGASVKVSCKASGYTFTGYHMYWVRQAPGQGLEWLGWINPNSGGTNYAQKFQGRVTMTRDTSISTAYMELSRLRSDDTAVYYCVRDQGIAAAGPFDYWCQGTLVTVSS
# VL: DIRMTQSPSSLSASVGDRVTITCRASQRISTYLNWYQQKPGKAPKFLIYAASSLQSGVPSRFSGSGSGTDFTLTISSLQPEDFATYYCQQSYTTPFTFGPGTKVDIKR
# notes: Variable regions only; hybridoma-derived fully human IgG kappa; also called x5.86
# B8: mAb 5.88.3 (antibody, V domains shown)
# VH: EVQMVESGGGLVQPGGSLRLSCAASGFTLRSYWMSWVRQAPGKGLEWVANIKEDGSEKYHVDSVKGRFTISRDNAENSLFLQMSSLRAEDTAVYYCARDMEASAGLFDYWGQGTLVTVSS
# VL: EIVMTQSPATLSVSPGERAILSCRASQSISSNLAWYQQKPGQAPRLLIYGASTRATGIPARFSGSGSGTEFTLTISSLQSEDFAVYYCQQYNYWWTFGQGTKVEIKR
# notes: Variable regions only; hybridoma-derived fully human IgG kappa; also called x5.88*
# Experiments:
# mouse Angiopoietin-2 [1] = target: T1, mouse Angiopoietin-2; experiment: direct ELISA on plates coated with conditioned medium of HEK293F/mouse Ang-2 transfectants, detection with anti-human Fc-HRP
# Experimental: The plates were incubated at 4° C. overnight, followed by washing four times using Phosphate Buffer Saline with a Skan Washer 300 station (SKATRON). The wells were blocked by 100 μl of ABX-block buffer (0.5% BSA, 0.1% Tween, 0.01% Thimerosal in PBS) for 1 hour. […] The mAbs and each of their dilutes were tested in duplicate. […] To set up the detecting chromagenic reaction, 100 μl of TMB substrate (TMB-microwell, BioFX, Cat. No. TMSK-1000-01) was added after washing the wells three times using PBS. The plates were incubated for 30 minutes before 650 stop solution (100 μl/well, BioFX, Cat. No. BSTP-0100-01) was added to terminate the reaction.
# [2] = target: T2, recombinant human Angiopoietin-2; experiment: competition ELISA, Ang-2 on coated Tie2/Fc
# Experimental: 96-well Nunc Immplates™ were coated with 100 μl of recombinant human Tie2/Fc fusion protein (R&D Systems, Inc., Cat. No. 313-TI-100) at 4 μg/ml by incubating overnight at 4° C. The plates were washed four times using Phosphate Buffer Saline (PBS) with a Skan™ Washer 300 station (SKATRON). The wells were blocked by 100 μl of ABX-blocking buffer (0.5% BSA, 0.1% Tween, 0.01% Thimerosal in PBS) for 1 hour.
# The plates were incubated at room temperature for two hours before the unbound molecules were washed off. […] After washing twice, the bound Streptavidin was detected by HRP substrate (R&D Systems, Cat. No. DY998). The plates were incubated for 30 minutes before 450 stop solution (100 μl/well, BioFX, Cat #BSTP-0100-01) was added to terminate the reaction. The light absorbance at 450 nm was determined by a Spectramax Plus reader.
# Each concentration of the mAb was tested in duplicate. The concentration-response relationship was found by curve fitting using Graphpad Prism™ graphic software (non-linear, Sigmnoid curve). The maximal inhibition (efficacy) and IC₅₀ (potency) were calculated by the software.
# mouse Angiopoietin-2 [3] = target: T1, mouse Angiopoietin-2; experiment: competition ELISA: mAb titrated with mouse Ang-2 supernatant on plates coated with human Tie2/Fc; blocked partner: human Tie2/Fc
# Experimental: (§1) For this purpose, an ELISA plate was coated with 4 μg/ml of hTie2/Fc (R&D Systems, Inc.) at 100 μl/well, and the wells were blocked as routine at 4° C. overnight.
# (§2) Each concentration of the mAb was tested in triplicate. […] OD650 was determined 30 min after the HRP substrate was added.
# [4] = target: T2, recombinant human Angiopoietin-2; experiment: competition ELISA: mAb titrated with recombinant human Ang-2 on plates coated with human Tie2/Fc; blocked partner: human Tie2/Fc
# Experimental: as §1, §2
binder,measurement,setting,value
B1,EC50 (read off the curve),mouse Angiopoietin-2 [1],~1 µg/mL
same,Efficacy (ratio of bound Ang-2 with mAbs (30 µg/ml) versus without mAbs),[2],0.395
same,IC50 (read off the curve),mouse Angiopoietin-2 [3],~2 µg/mL
same,IC50 (read off the curve),[4],~0.7 µg/mL
B2,Efficacy (ratio of bound Ang-2 with mAbs (30 µg/ml) versus without mAbs),[2],0.388
B3,Efficacy (ratio of bound Ang-2 with mAbs (30 µg/ml) versus without mAbs),[2],0.232
B4,Efficacy (ratio of bound Ang-2 with mAbs (30 µg/ml) versus without mAbs),[2],0.364
B5,Efficacy (ratio of bound Ang-2 with mAbs (30 µg/ml) versus without mAbs),[2],0.389
B6,Efficacy (ratio of bound Ang-2 with mAbs (30 µg/ml) versus without mAbs),[2],0.375
B7,Efficacy (ratio of bound Ang-2 with mAbs (30 µg/ml) versus without mAbs),[2],0.384
B8,Efficacy (ratio of bound Ang-2 with mAbs (30 µg/ml) versus without mAbs),[2],0.403
